Measured values published in the DeepSol protein solubility set.

test: soluble on expression in E. coli; label from the status in PepcDB or PDB records

Q: Which “soluble on expression in E. coli” value does the source give for “STTIYDLKKQKDKLLKFYAESDEQILMKNRKTLHKAKNEDLDRVLKEWIRQRRSEHMPLNGMLIMKQAKIYHNELKIEGNCEYSTGWLQKFKKRHGIKFLKTCGNKASAGHEATEKFTGKFSNDDEQDGNFEGFSMSSEKKIMSDLLTYTKNIHPETVSKLEEEDIKDVFNSNNEAPVVHSLSNGEVTKMVLNQDDHDDNDNEDDVNTAEKVPIDDMVKMCDGLIKGLEQHAFITEQEIMSVYKIKERLLRQKASLMRQMTLKETFKKAIQRNASSSLQDPLLGPSTASDASSHLKIK” here?
A: Its value is “soluble”.

Q: Which “soluble on expression in E. coli” value does the source give for “MPEFIIVEGNNDLGEFFQIDGELFSDNELLENLKKWREWEVPVIIDDWCNRILNEDETEILYFPTHEDKMNYIRVEKDLEPLYHTSNKIYATISKSEWLELLN” here?
A: The value was “not soluble”.

Q: For “MGSDKIHHHHHHMLSTANITMQFGAKPLFENVSVKFGEGNRYGLIGANGCGKSTFMKILGGDLEPTSGQVMKDATTRLGKLSQDQFAFESERVIDTVIMGNTELWEVAAERERIYSQTEMSEEDGMKVADLEVRYAELDGYTAEARAGELLLGLGIPLVQHTQPMSVVAPGWKLRVLLAQALFSDPDVLLLDEPTNHLDINTIRWLEEILRSRSSTMLIISHDRHFLNRVCTHMADLDYGELTLFPGNYDEYMTAATQARERLHADNAKKKAEIAELQQFVSRFSANASKAKQATSRQRKIDKIQLDEVKPSSRVSPFIRFEQTKKIHRHALNAEKLSKAWGDNVLFERFDLQVEAGERVAIIGPNGIGKTTLLNCLVGTMTPDAGEVKWTDAAEVGYFAQDHADDFEGGETLFEWMRQWTTEGEQTVRGALGRMLFSNDDIGKSVKVISGGEQGRMLFGKLALQKPNVLVMDEPTNHLDMESIEALNLALENYPGTLIFVSHDREFVGSLATRIIELKDDDIVDFSGSYDDYLRSQSIYD”, which “soluble on expression in E. coli” value is on record?
A: The value was “not soluble”.

Q: With “MGADLRYNMEITLEEAFAGKTAQIRVPTSITCDVCSGSGAKPGTQPKTCATCQGSGRVRAAQGFFSVERTCPTCHGRGQTISDPCGKCHGQGRVTEERSLSVNIPSGIEDGTRIRLQGEGEAGMRGGPAGDLYIFLSVRPHEFFQRDGADLYCTVPISMTTAALGGTFDVTTLDGTKSRVTVPEGTQPGKQFRLKGKGMPVLRSAQTGDLYIQIQIETPQKLSKRQRELLQEFEQLSSKENNPLEHHHHHH” as the sequence, how does the “soluble on expression in E. coli” value read?
A: The value was “soluble”.

Q: Which “soluble on expression in E. coli” value does the source give for “MGHHHHHHSHMGGLPMISASLQQRKTRTRRSMLFVPGANAAMVSNSFIYPADALMFDLEDSVALREKDTARRMVYHALQHPLYRDIETIVRVNALDSEWGVNDLEAVVRGGADVVRLPKTDTAQDVLDIEKEILRIEKACGREPGSTGLLAAIESPLGITRAVEIAHASERLIGIALGAEDYVRNLRTERSPEGTELLFARCSILQAARSAGIQAFDTVYSDANNEAGFLQEAAHIKQLGFDGKSLINPRQIDLLHNLYAPTQKEVDHARRVVEAAEAAAREGLGVVSLNGKMVDGPVIDRARLVLSRAELSGIREE” here?
A: The value was “not soluble”.

Q: Which “soluble on expression in E. coli” value does the source give for “VLAGIDALESSGFAAVAGKRIALVTNRSGVDRLGRRTIDLLAHAPGARLVAIFAPEHGLGTDVDAPFGDAIDADTNVVVHSLYGSRRRIAPEALSNVDVLVFDIQDAGVRFFTYLATLGYVLEAAAAAHVPVVVLDRPNPLGGDVVGGPVSDADIGSFTNYYPLPLAPGMTIGELAKLFDDRLRIGADLVVVPMENYRRWMRYGDTGLGGLPPSPNLRDAAALSLYPDIGLVEGADVSVGRGTATPFGVLGAPWIDGRALADDLRAMHLSATFTPARFVPTEGPYRGALCEGVRIERLPGPVRPGRIGLAVALALHRRYPDRFRIDAIRASVGSRAVADMLADGRPLDEIEQVVDTQNAAFSRERAAYLLY” here?
A: Its value is “not soluble”.

Q: For “MAHHHHHHMRRVVITGLGLVSPLASGVEETWKRLLAGESGARRVTEFEVDDLACQIACRIPVGDGTNGTFNPDLHMDPKEQRKVDPFIVYAVGAADQALDDAGWHPENDEDQVRTGVLIGSGIGGIEGIVEAGYTLRDKGPRRISPFFIPGRLINLASGHVSIKHKLRGPNHSVVTACATGTHAIGDAARLIAFGDADVMVAGGTESPVSRISLAGFAACKALSTERNDDPTAASRPYDEDRDGFVMGEGAGIVVLEELEHALARGAKIYAEVIGYGMSGDAFHITAPTESGEGAQRCMVAALKRAGIVPDEIDYINAHGTSTMADTIELGAVERVVGEAAAKISMSSTKSSIGHLLGAAGAAEAVFSTLAIRDNIAPATLNLDNPAAQTRIDLVPHKPRERKIDVALSNSFGFGGTNASLVLRRYTA”, which “soluble on expression in E. coli” value is on record?
A: The value was “soluble”.

Q: For “MGSDKIHHHHHHQEQVKVVDRTIRIGDAMEHPVPMKLSAFVDSITYVPLETTKSYVKDKMLISYVKPYWGVYPGSLFDKEGRFVANIGALGQGPGEESGFGYSIFYDRDRNIFYTQGDKIIQFDAKGKFTGKEIRIAYRDKGIEGKIASGLKNVYAMVKSGKDYLIVNYPDSIFWMDAELNVRHGDRIISDSLFLTPSGVGGGMPYTFSDYKDTTIFYNCFTDAIYTVTDTGLQKRWTLEFKGSKADNRCFLNDYKKLYLDEYVKIVSSSKGNVETMKEKAQNSELAQLIDNKKWVYHVSEGERYLFLWWLNLKAFSSAWRGYNESHIALYDKRTGEAVAIAGDGLIDDIDNGMTFFPRYGICNNAMVSSVWPFELKEYIQEKKAKGEAVSDRLIALADSLDDEQNPILVIAHLKK”, which “soluble on expression in E. coli” value is on record?
A: Its value is “not soluble”.

Q: For “MGSDKIHHHHHHMLIIKRSVAIIAILFSPLSTASNLTSQLHNFFSAQLAGVSDEVRVSIRTAPNLLPPCEQPLLSMSNNSRLWGNVNVLARCGNDKRYLQVNVQATGNYVVAAMPIARGGKLEAGNVKLKRGRLDTLPPRTVLDINQLVDAISLRDLSPDQPIQLTQFRQAWRVKAGQRVNVIASGDGFSANAEGQALNNAAVAQNARVRMVSGQVVSGVVDADGNILINL”, which “soluble on expression in E. coli” value is on record?
A: Its value is “not soluble”.

Q: Which “soluble on expression in E. coli” value does the source give for “MNRMRWVGEGDIWDLDMSTPVTLEGTARAVPDDPLPLGLSRGTRLSRPKQVEFFHRFMASPLIPSFSPIRPNTGDGGGGGFSLQRVLTLPFSNNWLVSLLGQFDVQRFVTEIDKTKAFGRGSSSTVASRLNTIGKHLKDKSLYALGFCSEFLLSPDDTLLLSYDAYKGDLDKNPRAKAIFNHEFPLHNLTAEAVWPGLFVDKHGEYWDVPLSMAIDLASLPAESGPSYHLCLHHNSGSPKKLHSDTMEVPPPSLLPGLSLKSAVSYRTNMDLWRGTTPKLETCKPYDVFLSSPHVAVSGIIGSVMTAAFGENSIRSKFENDSEGVGGFSLHFPSVNSGFMADALGRASLTAQYGNFQKFFFDLTRFHARLDFPHGLRFLTGATSVAQDLLNSRQPSLEAFQKICPEVLVSLQQQIVGPFSFKVESGIEIDLRNGANPVTVDKTVFAIEYALQVLLSAKAVVSYSPKQNEFMVELRFFET” here?
A: Its value is “soluble”.

Q: With “MDDHGRTPSTNQPILYVLDTNVLIHDPNALLNFEEHHVAIPMTVLEELDKLKAGKHSVAAECRQAIRLIDKTLGEASPEEVEKGVPIDRGTGVFKGFLSILMSKREEPNSLLPEHLNDNIIINQLIDLHARNKDLSVVLVTKDINMRLKARACGIDAEDYSTDQLVDDVSLLSRGYHDMTGSFWDRVNKVDTRQERGRTWHRVQLNEMLPAVHINEFIVDEQGFVGWIKGVKNDELLILDMHQEPLLHQEAWGLKPRDIYQGLALFALLDPDIHLVNLSGPAGSGKTILALAAAIEQTMVTKRYRRIIATRSVQGLDQEIGFLPGTEAEKMEPWLGAITDNLEALHMDDENTHGSVDYILSKVPLQFKSLNYIRGRSFQQSLILIDECQNLTPHQMKTIITRAGAGSKVVCLGNLAQIDTPYLSATSSGLTYLTERFKDFPNGVHLTLQGVPRSILAEYAESHL” as the sequence, how does the “soluble on expression in E. coli” value read?
A: Its value is “soluble”.

Q: Which “soluble on expression in E. coli” value does the source give for “MNNWKLILPLMMSGSLIACTSTQTTTEPVEPETPKVEQPVTVEPEVKPEVEPKPEVKPKPETKPEKKPEPKPEKPVKVQKTPDGMLILGSEEWVYVPAIDQTFKARVDTGATTSSISATEIVPFERDGKDWVQFKIDINGKTSKEFKVPVERWAKVKQSSSDEVDKRAVVVAYIQVGDYKEKTEFTLADRDHMKFPILLGRSFFRDIAVVDVSKKYIQDKPTKSTKK” here?
A: The value was “not soluble”.

Q: Which “soluble on expression in E. coli” value does the source give for “MAHHHHHHMSQKNKKVYDTQNEQENTNSSSNSSSNSDKEIQKDKEEYKKGENNFSILNVEEVNIIELSREELYKVCAELQQKELEALKYIYVLDSELNIKYENDEDKLTIVEINLNDQNISNNHINFTFELPKDYPLGSISIINVTVKNFTPDTNNYINEEVYRYLQRYNEQRECILPVIYKVNEIIENIIQYKEEPGEKSLSSSTEGRSDFDQEQTFNEWDNKNKQRKADIVCFPELSYSMNFSKRPNILARRLCYSHHILSLVKRSCIIKWAKQLKIGGYSKIGYPGIIVCEGPKDEVDFYINSLNKLRWKHFDCRGMEDIELDENENLDDARVLPTTVRELDAKSMRTLSDICTQCGLRDLFLTSMKIYNNNDKKGSVKEKNKNGEENKPGNTKDILKEKGKKKKKRSSK” here?
A: Its value is “not soluble”.

Q: Which “soluble on expression in E. coli” value does the source give for “MADEVIEYKFTCSSFYYGRETSQVLNTSITKGLKCVWKTRYASIAEQAFFSWEFDWNELKRLGIDSLAGNITVKSASMSPLNVQIDLRKPTEIVERAFYLRDDDYAYNSYINKTTFEYSFVPYCAQVDESLYEKMFLPSDENDAILVIGNKKLHVCKAFLSYHSSFFRAIFSSAFKEGQMSEIPIKDVTYKDFALMLSTIYPDAVFPNDRTVEKLLEMGDRFIIQSVINHVEYHLLHNTSIGNEKLMWMADRYGMPKLLVKSIQQMNSIEKAKALKSSPDYAKLSKEAKEKILDRLMALI” here?
A: The value was “not soluble”.

Q: For “MAPKRALPTEQVVAQLLGDDMGPSGPRKRERLNHLSQEEKMDRRKLKNRVAAQNARDKKKERSAKIEDVMRDLVEENRRLRAENERLRRQNKNLMNQQNESVMYMEENNENLMNSNDACIYQNVVYEEEVVGEVAPVVVVGGEDRRAFESAAFINEPQQWEQARSTSINNNISNQLRRMDSKKNNTISVDMYLTIISILCNHMDRNKKMDTSNKSSNISRAQAESSIDSLLATLRKEQTVMQRLVQADPCTHLQKRVKHFRRIP”, which “soluble on expression in E. coli” value is on record?
A: Its value is “soluble”.

Q: Which “soluble on expression in E. coli” value does the source give for “MKFSALGDQAIIVTFGEEIKRDIYEKVQRLFQALQQHPFAGMIECVPSFTSLAVYYNVYEVWKGNERSERSHDYVRQYIKELCDSYKEEVKQDVKHISIPVCYGGEYGPDLEEVAHYHGLQVEDVIRIHSETTYFVYMLGFTPGFPYLGGLSKELETPRKETPRLQISPGSVGIGGNQTGIYPLETPGGWNIIGRTPISLFNPEEEIPTYIQSGMYLRFIPITKEEYVSLEGAKKWMLEHHHHHH” here?
A: The value was “soluble”.

Q: With “MEGVVRLEVPTPEEGFVNITRKVEAALSGHTGLVYLFVPHTTCGLTVQEGADPTVAQDLLGRLAELAPRHRPQDRHLEGNSHAHLKSLLTGVHLLLLAEKGRLRLGRWQQVFLAEFDGPRVREVWVRLL” as the sequence, how does the “soluble on expression in E. coli” value read?
A: Its value is “soluble”.

Q: With “MRGSHHHHHHTDPALRAMRLVQLSRHSIAFPSPEGALREPNGLLALGGDLSPARLLMAYQRGIFPWFSPGDPILWWSPDPRAVLWPESLHISRSMKRFHKRSPYRVTMNYAFGQVIEGCASDREEGTWITRGVVEAYHRLHELGHAHSIEVWREDELVGGMYGVAQGTLFCGESMFSRMENASKTALLVFCEEFIGHGGKLIDCQVLNDHTASLGACEIPRRDYLNYLNQMRLGRLPNNFWVPRCLFSPQEGLCGR” as the sequence, how does the “soluble on expression in E. coli” value read?
A: The value was “soluble”.

Q: Which “soluble on expression in E. coli” value does the source give for “MGSDKIHHHHHHMEITKRIEELREEMVESLKKFISINSVNPAFGGPGEKEKADWLEGLLRDFGFEVDRCDVRDDRGIWRSNIVAKIPGKNREKTLWIVTHIDTVPPGDLSLWETDPFVPVVKDGKVYGRGAEDNGGSMIASIYAGKALIDLGITPEYNFGLALVADEEAGSEYGIQYLIEKGLFSPEDMFLVPDAGNEKGDFIEIAEKSILWFKVMVNGKQGHASRPQTTENALRKGAHLITEIDEALHRKYSDRDELFDEPLSTFEPTRAEKTVDNVNTVPGRFVFYFDCRVLPRYNLDEVLSIVKSILDGRGAELEVVVKQPAPEPTPPDSELVVKLSNVLRSLRGLEAKVGGIGGGTCAAFFRKKGWPAVVWSTIDETAHQPNEYRRISHMVEDAKVFALLGTER” here?
A: The value was “not soluble”.
